Biological target: hnRNPK (human, UniProt P61978 1-463)
Assay: EMSA

Binder	binding result
GGGGCCGGGGCCGGGGCCGGGGCCGGGGCCGGGGCCGGGGCCGGGGCC (structured_DNA, 5-methylcytosine at each CpG) [d(GGGGCC)8 5mCpG]	no binding
GGGGCCGGGGCCGGGGCCGGGGCCGGGGCCGGGGCCGGGGCCGGGGCC (structured_DNA, 5-hydroxymethylcytosine at each CpG) [d(GGGGCC)8 5hmCpG]	no binding

Reference: paper PMC4787773
